Results: PMC6598382

Legend:
[1] = substrate: C/C=C/C=C/C(=O)c1cc(C)c(O)c(C)c1O; test: steady-state Michaelis-Menten kinetics; assay type: biochemical, Penicillium rubens; conditions: native substrate
[2] = substrate: C/C=C/COC(=O)c1cc(C)c(O)c(C)c1O; test: steady-state Michaelis-Menten kinetics; assay type: biochemical, Penicillium rubens

B1: SorbC (Penicillium rubens Wisconsin 54-1255) (protein)
chain: MTRSANSPFEVAIVGGGITGLALAVGLLKRNVSFTIYERAENFGELGVGITFTPNAQRAMEALDPCVLQSFTNVASAPSGGTINFVDGVREQGSEDPRTSTAALLFQLHVKGGYKACRRCDFVDQIVQHIPKDCVQYRKWLDSIETDHESGRAVLKFRDGEIAHADVVIGCDGIRSQVRASMFGTDELCPRAQYSHQLGYRGMVPLAQATAVLGPEKTSSAVLHTGPGAFVLTIPLAEVHAMHIEAFIMDKEEWPEVQTSSDSKRYVLPATRNEATKAFAEFGPTVRSAVSMFPEKLEKWAVFDMLEAPVPTFAKGRVCLAGDAAHASTPNQGGGAGFGIEDALVLAEVLAVLAEAPNVSGIVASEALAVYSEVRYERSQWLVRSSRRTGELCTWKDRDWGLAAEELSRDIISRSHQLWDHDTAGMVSDALAILGERVRGADTAF
- Km [1]: 38.6 ± 1.7 µM
- Km [2]: 17.3 ± 0.7 µM
